According to patent publication US20230313199A1, “TARGET FOR MODULATING BODY MASS” (Massachusetts Institute of Technology, priority 2020, published 2023):
Like-named read-outs stand apart in the source and are kept apart here. Residues, ends and D or L forms follow the SMILES beside them. *: point of attachment. Cbz = O=C(OCc1ccccc1)*

T1: NTD of human MFSD7C (Homo sapiens, UniProt Q9UPI3)
T1 construct: Plasmid harboring GST-His-tag-SUMO-NTD (amino acids 1-84); GST-His-tag-SUMO (N, cleaved yes); made in house; host or cells: Escherichia coli Lemo21(DE3)
T1 sequence (Q9UPI3 1-84): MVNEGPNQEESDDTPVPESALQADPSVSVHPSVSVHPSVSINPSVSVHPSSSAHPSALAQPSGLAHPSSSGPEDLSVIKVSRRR

T2: HA-tagged murine MFSD7C (mouse, UniProt Q91X85 1-551)
T2 construct: Expressed by transfection in 293FT / HEK 293T cells; also called HA-MFSD7C; pCMV6-AN-3HA-MFSD7C; not shown: N-terminal HA tag from vector pCMV6-AN-3HA
T2 sequence (looked up): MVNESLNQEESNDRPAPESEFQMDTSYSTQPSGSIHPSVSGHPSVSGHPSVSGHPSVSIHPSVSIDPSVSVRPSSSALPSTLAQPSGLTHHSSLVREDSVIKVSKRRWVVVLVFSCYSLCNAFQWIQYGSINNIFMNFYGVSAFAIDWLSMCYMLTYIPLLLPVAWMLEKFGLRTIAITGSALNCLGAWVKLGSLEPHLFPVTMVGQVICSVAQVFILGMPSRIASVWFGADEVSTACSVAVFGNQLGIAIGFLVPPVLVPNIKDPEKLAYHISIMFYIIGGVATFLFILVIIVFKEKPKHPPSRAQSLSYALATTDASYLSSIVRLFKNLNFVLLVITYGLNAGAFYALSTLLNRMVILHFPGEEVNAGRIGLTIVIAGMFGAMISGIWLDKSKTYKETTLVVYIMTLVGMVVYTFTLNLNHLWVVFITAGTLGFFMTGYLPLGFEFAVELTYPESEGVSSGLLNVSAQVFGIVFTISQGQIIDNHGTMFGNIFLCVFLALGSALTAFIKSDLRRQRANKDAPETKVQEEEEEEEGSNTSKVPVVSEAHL

B1: FLAG-tagged murine NDUFA4 (other, mouse, UniProt Q62425 1-82, looked up)
chain: MLRQILGQAKKHPSLIPLFVFIGAGGTGAALYVMRLALFNPDVSWDRKNNPEPWNKLGPNEQYKFYSVNVDYSKLKKEGPDF
notes: Complex IV component; expressed by transfection; also called pCMV6-AC-DDK-Ndufa4; not shown: C-terminal FLAG (DDK) tag
B2: FLAG-tagged murine ATP5c1 (other, mouse, UniProt Q91VR2 26-298, looked up)
chain: ATLKDITRRLKSIKNIQKITKSMKMVAAAKYARAERELKPARVYGTGSLALYEKADIKAPEDKKKHLIIGVSSDRGLCGAIHSSVAKQMKNEVAALTAAGKEVMIVGVGEKIKGILYRTHSDQFLVSFKDVGRKPPTFGDASVIALELLNSGYEFDEGSIIFNQFKSVISYKTEEKPIFSLNTIATAETMSIYDDIDADVLQNYQEYNLANLIYYSLKESTTSEQSARMTAMDNASKNASDMIDKLTLTFNRTRQAVITKELIEIISGAAALD
notes: Complex V component; expressed by transfection; also called pCMV6-AC-DDK-ATP5c1; not shown: C-terminal FLAG (DDK) tag
B3: endogenous MFSD7C of mouse bone marrow-derived macrophages (other, UniProt Q91X85 1-551, looked up)
chain: T2 sequence (looked up)
B4: FLAG-tagged murine CYC1 (other, mouse, UniProt Q9D0M3 85-325, looked up)
chain: SDLELHPPSYPWSHRGLLSSLDHTSIRRGFQVYKQVCSSCHSMDYVAYRHLVGVCYTEEEAKALAEEVEVQDGPNDDGEMFMRPGKLSDYFPKPYPNPEAARAANNGALPPDLSYIVRARHGGEDYVFSLLTGYCEPPTGVSLREGLYFNPYFPGQAIGMAPPIYTEVLEYDDGTPATMSQVAKDVATFLRWASEPEHDHRKRMGLKMLLMMGLLLPLTYAMKRHKWSVLKSRKLAYRPPK
notes: Complex III component; expressed by transfection; also called pCMV6-AC-DDK-Cyc1; not shown: C-terminal FLAG (DDK) tag
B5: endogenous HMOX1 of mouse bone marrow-derived macrophages (enzyme, UniProt P14901 1-289, looked up)
chain: MERPQPDSMPQDLSEALKEATKEVHIQAENAEFMKNFQKGQVSREGFKLVMASLYHIYTALEEEIERNKQNPVYAPLYFPEELHRRAALEQDMAFWYGPHWQEIIPCTPATQHYVKRLHEVGRTHPELLVAHAYTRYLGDLSGGQVLKKIAQKAMALPSSGEGLAFFTFPNIDSPTKFKQLYRARMNTLEMTPEVKHRVTEEAKTAFLLNIELFEELQVMLTEEHKDQSPSQMASLRQRPASLVQDTAPAETPRGKPQISTSSSQTPLLQWVLTLSFLLATVAVGIYAM
B6: FLAG-tagged murine HMOX1 (heme oxygenase-1) (enzyme, mouse, UniProt P14901 1-289, looked up)
chain: B5 chain
notes: Expressed by transfection; also called pCMV6-AC-DDK-HMOX1; not shown: C-terminal FLAG (DDK) tag

Tests used:
SERCA2b = SERCA2b level and ubiquitination by pull-down and Western blotting in transfected 293T cells; format: cell-based, murine
Protocol: (§1) FIGS. 5A-5F show MFSD7C and heme regulate thermogenesis through SERCA2b in THP-1 cells. […] 30 hours later, MG132 was added into half of the cells and the other half was not treated. Another 35 hours later, some cells were treated with 40 μM heme for 1 hour before lysis. Cell lysates were immunoprecipitated with anti-FLAG antibody, and eluted, followed by anti-HA immunoprecipitation and elution. Total cell lysate and elute were subjected to Western blotting and probed with anti-SERCA2b or anti-MFSD7C antibodies. Shown are representative data from one of three experiments. […] 24 hrs later, cells were either not treated or treated with 10 μM MG132 for either 6 or 12 hours. The cells were lysed and subjected to FLAG pull-down and blotted with anti-MFSD7C, anti-SERCA2b and anti-ubiquitin antibodies. Shown are representative data from one of three experiments. […] Parental THP-1 cells were either not treated or treated with heme before lysis. Shown are representative data from one of four experiments. […] Shown are representative data from one of two experiments. […] Cells were washed and treated with 40 μM heme for one hour before flow cytometry. Representative FPT histograms from one of three experiments are shown. […] Shown are representative FPT histograms from one of three experiments. […]

MFSD7C and SERCA2b = target: T3, MFSD7C and SERCA2b (Mus musculus, UniProt Q91X85); test: Co-IP of MFSD7C and SERCA2b in transfected 293T cells; format: cell-based, murine; conditions: 293T cells in the presence of MG132; none co-precipitated without
T3 construct: expressed in transfected cells; called 293T
Protocol: as §1

HP motif peptide = target: T4, HP motif peptide (Homo sapiens, UniProt Q9UPI3); test: Isothermal titration calorimetry of HP motif peptide binding to heme (one-site model); conditions: synthetic 14-amino acid HP motif peptide, one-site binding model
T4 construct: a synthetic 14-amino acid HP motif peptide; made in house; host or cells: chemical solid-phase synthesis (Koch Institute Biopolymers & Proteomics Core)

NTD of human MFSD7C = target: T1, NTD of human MFSD7C; test: Isothermal titration calorimetry of NTD binding to heme; conditions: ITC, 25° C., 3-site sequential binding model
THP-1 cells = test: Inhibition of heme-stimulated thermogenesis (FPT) in THP-1 cells; format: cell-based, human; conditions: 4 μM thapsigargin 2 hours, then 40 μM heme one hour
Protocol: FIGS. 5A-5F show MFSD7C and heme regulate thermogenesis through SERCA2b in THP-1 cells. […] 30 hours later, MG132 was added into half of the cells and the other half was not treated. Another 35 hours later, some cells were treated with 40 μM heme for 1 hour before lysis. Cell lysates were immunoprecipitated with anti-FLAG antibody, and eluted, followed by anti-HA immunoprecipitation and elution. Total cell lysate and elute were subjected to Western blotting and probed with anti-SERCA2b or anti-MFSD7C antibodies. Shown are representative data from one of three experiments. […] 24 hrs later, cells were either not treated or treated with 10 μM MG132 for either 6 or 12 hours. The cells were lysed and subjected to FLAG pull-down and blotted with anti-MFSD7C, anti-SERCA2b and anti-ubiquitin antibodies. Shown are representative data from one of three experiments. […] Parental THP-1 cells were either not treated or treated with heme before lysis. Shown are representative data from one of four experiments. […]
FIGS. 16A-16F show Co-localization of MFSD7C and SERCA2b. […] Co-localization between MFSD7C and SERCA2b was quantified. […] P-values were calculated using unpaired t-test (***p<0.05). […]
In the second approach, we used fluorescent polymeric thermometer (FPT), which we synthesized in-house (see above). […] Then the fluorescence intensities were determined by a flow cytometer.

[1] = target: endogenous human SERCA2b of THP-1 cells (human) (UniProt P16615); test: cell-based or functional assay
HA-tagged murine MFSD7C [2] = target: T2, HA-tagged murine MFSD7C; test: co-IP and Western blot, co-transfected 293FT cells, without heme (less or very little with 10 or 40 µM heme)
Protocol: (§2) Co-transfection and immunoprecipitation. For co-IP, HA-tagged MFSD7C was co-transfected with FLAG-tagged HMOX1 (Origene Catalog No. MR203944), CYC1, COX4I1, NDUFA4, ATP5h, ATP5c1 into 293FT cells using TransIT®-LT1 Transfection Reagent (Mirus). Thirty-six hours after transfection, the cells were lysed using cold Lysis Buffer containing 20 mM Tris-HCl (pH 7.4), 150 mM NaCl, 0.1% NP-40, 10% glycerol, proteinase inhibitor (Sigma Catalog No. 4693132001), and phosphatase inhibitors (Sigma Catalog No. 4906845001). The clear supernatants from the lysate were incubated with M2-magnetic beads conjugated with anti-FLAG antibody (Sigma Catalog No. M8823) for 2 hours at 4° C. Then the beads were washed twice and eluted by the 3× FLAG peptides (Sigma Catalog No. F4799).
(§3) To determine the effect of heme on MFSD7C interactions with ETC components, HMOX1 or SERCA2b, 293FT cells were transiently transfected with HA-tagged murine MFSD7C and FLAG-tagged murine CYC1, NDUFA4, COX4i1, ATP5h, ATP5c1, HMOX1 or SERCA2b. 35 hrs later, co-transfected cells were incubated with DMSO (vehicle) or 10 μM or 40 μM of heme for one hour before lysis. Cell lysates were precipitated with anti-HA antibody, eluted with HA peptide, further precipitated with anti-FLAG antibody, eluted with FLAG peptide, and then subjected to Western blotting with anti-HA and anti-FLAG antibodies. Cells were treated with proteasome inhibitor MG132 for co-IP between MFSD7C and SERCA2b.

[3] = target: T5, endogenous mouse SERCA2b (ATP2a2) (mouse, UniProt O55143 1-1044); test: co-IP of endogenous proteins, mouse bone marrow-derived macrophages
T5 construct: also called endogenous SERCA2b

[4] = target: B3; test: co-IP of endogenous proteins, mouse bone marrow-derived macrophage lysate
HA-tagged murine MFSD7C [5] = target: T2, HA-tagged murine MFSD7C; test: co-IP and Western blot, co-transfected 293FT cells, with or without 10 or 40 µM heme
Protocol: as §2
as §3, with “Cells were treated with proteasome inhibitor MG132 for co-IP between MFSD7C and SERCA2b.” left out

endogenous human SERCA2b of THP-1 cells (human), sequence (P16615 whole entry): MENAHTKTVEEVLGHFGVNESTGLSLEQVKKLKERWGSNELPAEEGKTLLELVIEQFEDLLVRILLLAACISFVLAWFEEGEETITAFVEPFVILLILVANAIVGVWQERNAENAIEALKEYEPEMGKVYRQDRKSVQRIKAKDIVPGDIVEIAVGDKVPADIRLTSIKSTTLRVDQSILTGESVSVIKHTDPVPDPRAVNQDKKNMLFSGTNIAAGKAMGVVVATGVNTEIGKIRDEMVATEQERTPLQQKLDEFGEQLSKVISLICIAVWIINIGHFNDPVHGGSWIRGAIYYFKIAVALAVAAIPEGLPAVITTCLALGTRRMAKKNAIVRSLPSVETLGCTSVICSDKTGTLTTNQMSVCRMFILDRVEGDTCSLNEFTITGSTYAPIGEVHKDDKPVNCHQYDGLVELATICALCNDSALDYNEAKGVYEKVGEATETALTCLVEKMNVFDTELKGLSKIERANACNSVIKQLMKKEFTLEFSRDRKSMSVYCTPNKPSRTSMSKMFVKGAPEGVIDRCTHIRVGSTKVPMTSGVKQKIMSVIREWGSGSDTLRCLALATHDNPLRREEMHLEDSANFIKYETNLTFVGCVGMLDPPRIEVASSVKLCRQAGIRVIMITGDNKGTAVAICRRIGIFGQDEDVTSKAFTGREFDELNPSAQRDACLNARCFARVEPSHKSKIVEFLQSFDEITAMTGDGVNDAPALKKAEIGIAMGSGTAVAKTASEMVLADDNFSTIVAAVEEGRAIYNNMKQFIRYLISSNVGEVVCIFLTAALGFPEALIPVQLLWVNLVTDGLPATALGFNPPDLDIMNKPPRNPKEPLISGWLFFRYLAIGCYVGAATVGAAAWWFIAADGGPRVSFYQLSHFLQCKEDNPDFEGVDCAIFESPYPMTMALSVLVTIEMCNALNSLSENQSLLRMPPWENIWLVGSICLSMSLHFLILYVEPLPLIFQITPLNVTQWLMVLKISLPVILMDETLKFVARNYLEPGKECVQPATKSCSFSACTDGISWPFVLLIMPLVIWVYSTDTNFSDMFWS
T5 sequence (O55143 whole entry): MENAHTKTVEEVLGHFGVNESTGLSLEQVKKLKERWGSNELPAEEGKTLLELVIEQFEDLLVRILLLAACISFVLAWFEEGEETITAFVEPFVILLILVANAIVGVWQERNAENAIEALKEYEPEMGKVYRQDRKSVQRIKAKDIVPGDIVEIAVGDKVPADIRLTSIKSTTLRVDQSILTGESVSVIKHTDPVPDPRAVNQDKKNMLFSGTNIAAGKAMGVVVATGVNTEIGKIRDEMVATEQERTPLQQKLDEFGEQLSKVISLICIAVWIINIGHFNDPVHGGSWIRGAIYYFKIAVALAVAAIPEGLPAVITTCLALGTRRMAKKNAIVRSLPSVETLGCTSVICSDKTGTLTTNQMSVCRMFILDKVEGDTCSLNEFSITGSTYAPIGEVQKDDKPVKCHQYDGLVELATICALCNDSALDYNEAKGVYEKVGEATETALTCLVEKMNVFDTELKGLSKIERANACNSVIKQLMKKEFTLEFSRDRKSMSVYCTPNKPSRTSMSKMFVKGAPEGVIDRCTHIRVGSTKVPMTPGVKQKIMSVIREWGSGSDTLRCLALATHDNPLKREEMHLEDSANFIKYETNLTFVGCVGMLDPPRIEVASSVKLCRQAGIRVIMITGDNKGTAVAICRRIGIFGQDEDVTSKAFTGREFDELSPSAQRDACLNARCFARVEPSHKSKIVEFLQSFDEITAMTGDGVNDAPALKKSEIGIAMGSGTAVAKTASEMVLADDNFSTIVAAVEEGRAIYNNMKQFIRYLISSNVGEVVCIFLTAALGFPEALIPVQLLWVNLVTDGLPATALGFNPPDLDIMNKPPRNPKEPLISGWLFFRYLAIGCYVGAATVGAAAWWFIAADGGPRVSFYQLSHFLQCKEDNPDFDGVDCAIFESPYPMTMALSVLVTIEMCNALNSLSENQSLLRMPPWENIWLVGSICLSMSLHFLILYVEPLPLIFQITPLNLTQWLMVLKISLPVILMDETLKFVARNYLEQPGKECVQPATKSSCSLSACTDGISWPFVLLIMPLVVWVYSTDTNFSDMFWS

Question: For `CC(C)C[C@@H](C=O)NC(=O)[C@H](CC(C)C)NC(=O)[C@H](CC(C)C)NC(=O)OCc1ccccc1` [MG132] (Cbz-Leu-Leu-Leu-aldehyde), which “full-length and ubiquitinated SERCA2b precipitated” value (SERCA2b; 10 μM MG132 for 6 or 12 hours, longer treatment) is on record?
Answer: more full-length and ubiquitinated SERCA2b was precipitated

Question: And the “level of SERCA2b detected” value (SERCA2b; presence vs absence of MG132)?
Answer: significantly higher level of SERCA2b was detected

Question: And the “SERCA2b co-precipitated with MFSD7C” value (MFSD7C and SERCA2b)?
Answer: an appreciable level was co-precipitated with MFSD7C

Question: `C=CC1=C(C)C2=Cc3c(C=C)c(C)c4[n]3[Fe][n]3c(c(C)c(CCC(=O)O)c3=CC3=NC(=C4)C(C)=C3CCC(=O)O)=CC1=N2` [heme] was tested. Which Kd (HP motif peptide) did it give?
Answer: ~1000 nM

Question: And the Kd (NTD of human MFSD7C; two strong of three heme sites on NTD, read-out: KD, two strong binding sites)?
Answer: ~1000 nM

Question: What about the Kd (NTD of human MFSD7C; weaker of three heme sites on NTD, read-out: KD, one weaker site) of the same molecule?
Answer: ~220000 nM

Question: Which heme-stimulated thermogenesis (THP-1 cells) does the source give for `C/C=C(/C)C(=O)O[C@H]1C(C)=C2[C@H]([C@@H]1OC(=O)CCCCCCC)[C@@](C)(OC(C)=O)C[C@H](OC(=O)CCC)[C@@]1(O)[C@H]2OC(=O)[C@@]1(C)O` [thapsigargin] here?
Answer: mostly inhibited

Question: Which Pearson's correlation coefficient value (co-localization, THP-1 cells after 40 µM heme for 1 hour) [1] does the source give for “endogenous human MFSD7C of THP-1 cells (from UniProt Q9UPI3 1-526)” here?
Answer: 0.67

Question: What about the Pearson's correlation coefficient value (co-localization, confocal microscopy of THP-1 cells) [1] of the same molecule?
Answer: 0.89

Question: Does B1 bind (HA-tagged murine MFSD7C [2])?
Answer: binds

Question: Does B2 bind (HA-tagged murine MFSD7C [2])?
Answer: binds

Question: Does B3 bind [3]?
Answer: binds

Question: Does B4 bind (HA-tagged murine MFSD7C [2])?
Answer: binds

Question: Does B5 bind [4]?
Answer: binds

Question: Does B6 bind (HA-tagged murine MFSD7C [5])?
Answer: binds
